Residue numbers refer to the chain shown, from its start. Values belong to the binder of their own block, whether it stands above or below them.
How the values were obtained:
BSA = target: T1, BSA (bovine, UniProt P02769 25-607); assay: concentration-dependent ELISA, detection with anti-gamma-II-crystallin antibody-POD
T1 construct: Control antigen
Method: The binding properties of the purified proteins were now tested as described above in a concentration-dependent ELISA. For this purpose, different concentrations (100 nM-10 μM) of the Affilin™ variations were employed and an anti-gamma-II-crystallin antibody (monoclonal antibody conjugate with POD) was employed as the detection antibody.

human IgG Fc = target: T2, human IgG Fc (human); assay: SPR (BIACORE), IgG Fc immobilised on a CM5 chip, Affilin as analyte
T2 construct: domain: Fc; The ELISAs used human monoclonal IgG Fc (Roche); Kept as one molecule; also called human monoclonal IgG Fc portion (Roche); polyclonal IgG Fc
Method: In BIACORE experiments the dissociation constants of the three Affilin™ variations were determined. For this purpose, approx. 180 RU of human IgG Fc (50 μg/ml in 50 mM Na citrate, pH 5.0) was immobilized on a CM5 chip. Free binding sites were finally inactivated by 1 M ethanolamin (pH 8.5).
Then, at a flow of 30 μl/min, 6 different concentrations (166 nM-1 μM) were passed over the chip for 180 sec. Afterwards, at the same flow the chip was rinsed with HBS, 0.005% Surfactant P20 (Biacore) for 180 sec. From the resulting sensorgrams using the BiaEvaluation Software (Biacore, Uppsala, Sweden) the following dissociation constants of the Affilin™ variations to IgG Fc could be determined: SPC1-A1 with 230 nM, SPC1-A7 with 280 nM and SPC1-G3 with 800 nM. In competition experiments the specific binding of the Affilin™ variations to IgG Fc and not to the chip matrix could be detected (FIG. 2).

proNGF [1] = assay: concentration-dependent ELISA, proNGF coated, apparent KD
Chain of proNGF (P01138 19-241): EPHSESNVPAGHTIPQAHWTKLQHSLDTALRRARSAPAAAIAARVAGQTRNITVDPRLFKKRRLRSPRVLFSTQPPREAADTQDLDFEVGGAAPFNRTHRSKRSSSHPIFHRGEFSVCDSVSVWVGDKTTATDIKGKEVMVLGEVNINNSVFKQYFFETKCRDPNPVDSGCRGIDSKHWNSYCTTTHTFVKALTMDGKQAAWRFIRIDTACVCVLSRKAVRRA
Method: FIG. 3: Concentration-dependent ELISA for the detection of the binding of SPC7-E9 to proNGF. The microtiter plate was coated with 10 μg/mi of proNGF. As the detection antibody served an anti-human gamma-II-crystallin antibody-POD conjugate in a dilution of 1:1000. The absorption values presented are mean values of two parallel measurements.

proNGF [2] = assay: SPR (BIACORE), SPC7-E9 coupled through amino groups to a CM5 chip, proNGF as analyte
Method: FIG. 9: Sensorgrams of the Biacore experiments for the binding of SPC7-E9 to a CM5 chip with proNGF. 280 RU of […] were immobilized and different concentrations of proNGF passed over the chip. As the running buffer served HBS-EP with a flow rate of 30 μl/min.
2.) Furthermore, SPC7-E9 could be coupled unspecifically via surface-exposed amino groups (lysines) by means of NHS/EDC to the carboxyl groups of the BIACORE dextrane matrix in the following manner: The CM5 chip was activated for 7 min with NHS/EDC, and afterwards purified SPC7-E9 (in 20 mM Na phosphate buffer, pH 6.0) was passed over the chip for further 7 min. After the coupling was carried out the remaining reactive groups were deactivated for 7 min with 1 M ethanolamine (pH 8.5). For the analysis of dissociation constants the target proNGF was passed over the chip in different concentrations, the binding was monitored online (FIG. 9), and the curves were subsequently evaluated with the BiaEvaluation Software. […] After kinetic measurements the chip was regenerated with 0.1 glycin (pH 2.2), 10 mM HCl, 10 mM NaOh, 6 M Gua/HCl, 6 M urea and 20% ethanol. In this way, the binding activity of the Affilin™ chip was unchanged even after several regeneration cycles

T1 sequence (P02769 25-607 limits assumed): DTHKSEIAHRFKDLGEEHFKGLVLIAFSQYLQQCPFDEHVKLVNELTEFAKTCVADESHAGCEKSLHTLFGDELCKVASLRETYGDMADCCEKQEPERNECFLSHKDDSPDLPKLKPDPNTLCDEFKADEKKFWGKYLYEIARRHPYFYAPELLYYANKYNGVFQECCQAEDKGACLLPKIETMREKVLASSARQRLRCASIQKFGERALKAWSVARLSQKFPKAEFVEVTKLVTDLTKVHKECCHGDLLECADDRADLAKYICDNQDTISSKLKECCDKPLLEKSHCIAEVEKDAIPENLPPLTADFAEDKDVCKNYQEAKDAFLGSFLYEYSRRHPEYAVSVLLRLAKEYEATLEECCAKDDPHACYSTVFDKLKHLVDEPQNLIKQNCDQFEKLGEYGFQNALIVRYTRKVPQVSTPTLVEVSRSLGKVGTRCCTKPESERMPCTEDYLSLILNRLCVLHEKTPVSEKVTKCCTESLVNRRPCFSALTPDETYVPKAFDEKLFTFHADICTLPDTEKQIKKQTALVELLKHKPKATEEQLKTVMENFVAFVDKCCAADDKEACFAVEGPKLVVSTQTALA

binding result (BSA): no binding
B1: human wildtype gamma-II-crystallin (other, UniProt P07316 1-175, looked up)
chain: MGKITFYEDRAFQGRSYECTTDCPNLQPYFSRCNSIRVESGCWMIYERPNYQGHQYFLRRGEYPDYQQWMGLSDSIRSCCLIPPHSGAYRMKIYDRDELRGQMSELTDDCISVQDRFHLTEIHSLNVLEGSWILYEMPNYRGRQYLLRPGEYRRFLDWGAPNAKVGSLRRVMDLY
notes: also called human wildtype gamma-crystallin

binding result (BSA): no binding (tested: 100 nM-10 µM)
Kd (human IgG Fc): 230 nM
B2: Affilin variation SPC1-A1 (designed binder)
chain: MGFIWFMEDRAFQGRRYDCGTDCPNLQPYFSRCNSIKVKSGCWMIYERPNYQGHRHQYFLRRGEYPDYQQWMGLSDSIRSCCLIPPHSGAYRMKIYDRDELRGQMSELTDDCLSVQDRFHLTEIHSLNVLEGSWILYEMPNYRGRQYLLRPGEYRRFLDWGAPNAKVGSLRRVMDLYA
notes: Selected from the human gamma-II-crystallin library CR20

binding result (BSA): no binding (tested: 100 nM-10 µM)
Kd (human IgG Fc): 280 nM
B3: Affilin variation SPC1-A7 (designed binder)
chain: B2 chain with F3L, W5C, M7S, D18M, G20L, K37N, K39W
notes: Selected from library CR20; has a free cysteine in variable position 4; not shown: C-terminal tag of six histidines 'already present'

binding result (BSA): no binding (tested: 100 nM-10 µM)
Kd (human IgG Fc): 800 nM
B4: Affilin variation SPC1-G3 (designed binder)
chain: B2 chain with F3S, W5I, M7L, R16I, D18G, G20T, K37V, K39Q
notes: Selected from library CR20

Kd (proNGF [1]): 200 nM
Kd (proNGF [2]): 1.4 nM
B5: Affilin variation SPC7-E9 (designed binder)
chain: MGFICFLEDRAFQGRSYACDTDCPNLQPYFSRCNSISVLSGCWMIYERPNYQGHQYFLRRGEYPDYQQWMGLSDSIRSCCLIPPHSGAYRMKIYDRDELRGQMSELTDDCLSVQDRFHLTEIHSLNVLEGSWILYEMPNYRGRQYLLRPGEYRRFLDWGAPNAKVGSLRRVMDLYLEHHHHHH
notes: Directed against proNGF; also called SPCJ-E9 (including His6)
